Results from the supplement of paper PMC12764529.
± gives the half width of the 95% confidence interval.

Legend:
[1] = folding stability dG unfold from trypsin proteolysis; higher = more stable
How it was run: (§1)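 K50 was inferred by Bayesian fitting of sequencing counts obtained after protease digestion of designed mini-proteins. Unfolding free energy was derived by comparison with a sequence-predicted unfolded-state K50 and a shared folded-state K50, for each protease or both combined. The mini-proteins were under 80 residues, had no cysteine, were carried in a PA-tagged cDNA display construct, and were kept only if AlphaFold2 dimer inter-PAE exceeded 15.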

[2] = folding stability dG unfold from chymotrypsin proteolysis; higher = more stable
How it was run: as §1

[3] = folding stability dG unfold (combined trypsin and chymotrypsin); higher = more stable
How it was run: as §1

Sequence	folding stability dG unfold [1] [kcal/mol]	folding stability dG unfold [2] [kcal/mol]	folding stability dG unfold [3] [kcal/mol]
SAGGLTVTLTDSSGNPVTVETELLPDNTLVLTITRTTPSGKTYTRTGIVSIDNTTINLVSFSEWTEDPSAGG [r13_451_JUSTAS]	2.79 ± 0.097	3.25 ± 0.08	3.02 ± 0.16
SAGGLTWEEAREIAEEIANMEVPSPNGMPMKVKVDIEIDPPNGYFRVDVKVEMPGKPQKFPLEIPLKSAGGS [r16_812_TrROS]	0.607 ± 0.16	0.536 ± 0.17	0.673 ± 0.25
SAGGMAEEVAEAVRDFFESQGLPAEVEPLSVHPNNLVVYRFRVPGYYALVVADPDNPVVVVTVYPLPSAGGS [r8_157_TrMRF]	2.46 ± 0.13	3.45 ± 0.049	3.08 ± 0.14
SAGGMAIKDVRVEGGVLYVYRGDKLVAKIEPGAAQPPVLVRFPDGTVVAVPRSVALALNPETLEFFDVSAGG [r13_802_TrMRF]	1.24 ± 0.032	1.44 ± 0.087	1.43 ± 0.043
SAGGMEEIEPVTITITVVDEETGEKVEIKITVPKEEITRIEIKPDGTIRIYFKENNEVIEIKLEDIKSAGGS [r16_410_TrROS_Hall]	2.99 ± 0.24	4.22 ± 0.19	4.16 ± 0.32
SAGGMEFEFTREDGRKTRVELEVNPETGEVTEKIYVGGKLLYTFKDGELKYIPDEVAAARIEARLPPESAGG [r13_958_TrMRF]	-0.0213 ± 0.12	1.84 ± 0.079	1.45 ± 0.11
SAGGMEIKIEKEGNKIKITIKNENGEIEEFEITLKDGKKYRIIIDKDNPNTIYIVDEKTGKTIVLKASAGGS [r16_198_TrROS_Hall]	4.6 ± 0.64	4.55 ± 0.11	4.71 ± 0.3
SAGGMEIVSSGSLEEAIALLKENPNTTITVTLPDGTTVVIKVTQNGEGPYIYDVSTEPPAAAPSPSLVSAGG [r13_56_JUSTAS]	2.15 ± 0.096	1.1 ± 0.038	1.66 ± 0.079
SAGGMEKAIKEIKEAAKKGEEAVIVLPKNVDPSELISAIEKETGAKVEPLEVKPLPNGELVIKIKVKSAGGS [r16_318_TrMRF]	1.44 ± 0.1	2.23 ± 0.16	1.89 ± 0.12
SAGGMELVGEYEVELPDVPIRFPVYRVPEAGLVVVEAERYDPSTGEWTPLGVVPLPEGSAEEALKALSAGGS [r8_423_TrMRF]	1.21 ± 0.034	0.334 ± 0.089	0.864 ± 0.061
SAGGMELVIAVNSKEEAKKAAEEIKKKTPKGFKLEIEIEEYDLKENVEPEDKDIENIKVYLIKVKLESAGGS [r16_795_TrMRF]	1.4 ± 0.13	2.01 ± 0.21	1.69 ± 0.23
SAGGMELVSRKRLSTSADGSVTYLYEYYDPKTGKRYTLVVTVKTPDGKIKPKVFTADSEEEAKKIALESAGG [r13_26_JUSTAS]	1.1 ± 0.06	1.56 ± 0.16	1.34 ± 0.11
SAGGMEPIEIPAKVKITHNGKEQEYPLENVTIWPMPDGMYMIYNPDKGEMFFINPKNGRLMRIEIDDSAGGS [r16_721_TrROS]	0.94 ± 0.092	2.5 ± 0.15	1.99 ± 0.19
SAGGMERKTLTVNVPASVPASELLSLLEGYGDVLLVLGNGEVLHIKRDDAPGLEGLPLSDDDVLELYYSAGG [r13_399_TrMRF]	-0.696 ± 0.14	1.23 ± 0.059	0.802 ± 0.075
SAGGMEVKEISIPVPENLTPEQAVEKVKELFEKHPELEHVLVYFELPNGKPLVVEVDKNGKITKVEEKSAGG [r13_690_TrMRF]	0.889 ± 0.041	2.28 ± 0.048	1.88 ± 0.095
SAGGMEVREIDVENEDGHNVKIEIWWMPGEGWIMVKIEGPNPALIDDIQKEIGLPILEVMKDGYLMIKSAGG [r13_937_TrROS]	1.16 ± 0.03	2.6 ± 0.033	2.22 ± 0.091
SAGGMEVVEIKYDPETGTVTVTVAIPESLSFDEVAPEVEALVKEKTGRPVEITVDPATGTVTATVPRSAGGS [r8_314_JUSTAS]	0.832 ± 0.031	1.39 ± 0.058	1.15 ± 0.072
